# The supplement of paper PMC9732359
# ± gives the uncertainty stated by the source.
# Experiment: protein stability index of a GFP-peptide fusion (yeast GPS) (PSI 1-4); higher = more stable; sorted into four equal gates, so the index is relative within each strain
# Outline: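 Tiled 17-residue yeast protein peptides were fused downstream of GFP in a plasmid that also expresses Cherry, and the pooled library was carried in yeast. Mid-log cultures in leucine-free medium were sorted into four equal gates by GFP/Cherry fluorescence ratio, and plasmids from each gate were PCR-amplified and Illumina-sequenced, with reads assigned to strains by barcodes. The protein stability index for each peptide was each gate's read frequency times its gate number, summed.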
Sequence,protein stability index (doa10∆),protein stability index (pdr5∆),protein stability index (san1∆),protein stability index (ubr1∆)
ATPFRQWFEAHYGQTLG [RPS8A],2.436 ± 0.022,2.787 ± 0.024,2.7 ± 0.021,2.573 ± 0.019
HRIGQKKQVHVYRFVTE [ISW2],2.14 ± 0.054,2.33 ± 0.051,2.28 ± 0.075,2.12 ± 0.038
DKTLRLWDVATGETYQR [ASC1],3 ± 0.23,3.36 ± 0.16,2.18 ± 0.19,3.42 ± 0.091
SKQVQVSQQPLSRGYTC [ECM29],2.83 ± 0.074,2.76 ± 0.091,2.44 ± 0.061,2.92 ± 0.052
PRGVLLYGPPGTGKTML [RPT3],3.07 ± 0.089,2.57 ± 0.11,2.9 ± 0.081,2.72 ± 0.074
NTVVGISGDISDMQHIE [PRE4],2.94 ± 0.12,3.29 ± 0.12,3.15 ± 0.17,2.82 ± 0.12
YESQTFSSKNEWRKSAI [PRP8],3.23 ± 0.076,3.28 ± 0.063,3.29 ± 0.06,3.01 ± 0.059
YTQQQALEYIGAKVKTM [RET1],1.97 ± 0.063,2.34 ± 0.072,2.25 ± 0.086,2.1 ± 0.059
MFIEEPTRMVRVAKGSG [SRP54],3.09 ± 0.19,2.95 ± 0.23,2.75 ± 0.24,3.26 ± 0.15
HQHGDKVDIFEIPETGE [FAS2],,2.75 ± 0.28,,2.54 ± 0.069
TPVVLATPIPEEVQQAQ [RPS5],2.55 ± 0.099,2.43 ± 0.16,3.1 ± 0.1,2.83 ± 0.13
TPLKARQREMAEEQTKL [YLR018C/POM34],3.33 ± 0.08,3.36 ± 0.093,3.31 ± 0.053,3.41 ± 0.056
PDGSFEDWSVEELIVDL [RPO26],3.42 ± 0.17,2.06 ± 0.16,3 ± 0.13,2.84 ± 0.081
EDRNKIHQYLFQEGVVV [RPS10A],2.37 ± 0.064,2.37 ± 0.06,1.66 ± 0.12,2.61 ± 0.058
INYLALNAANYNIDANV [ECM29],,2.76 ± 0.2,,2.72 ± 0.13
VDVAKDINVKDLKASQR [RPT6],3.35 ± 0.14,3.13 ± 0.11,2.63 ± 0.18,3.22 ± 0.098
VNETEAILYTKPGHVLQ [YGR119C/NUP57],3 ± 0.15,3.12 ± 0.13,2.75 ± 0.13,3.66 ± 0.21
ESKPFSSDALSKEKANF [SIR4],1.96 ± 0.068,1.59 ± 0.065,1.73 ± 0.089,1.39 ± 0.056
KVVNFWLLHNGFSTGIG [RPO21],3.17 ± 0.16,2.25 ± 0.1,2.51 ± 0.13,1.37 ± 0.094
KIVEIDRHIGCAMSGLT [PUP2],1.82 ± 0.07,2.32 ± 0.091,2 ± 0.14,2.17 ± 0.06
DVECIKAKSHFTNIISR [YJL039C/NUP192],3.04 ± 0.092,3.1 ± 0.098,2.73 ± 0.078,2.97 ± 0.056
ILSINAIDYEPEYEKAM [SMC1],3.29 ± 0.076,3.1 ± 0.068,3.05 ± 0.049,3.13 ± 0.043
TQTFNGSIFTHETTFMT [YML031W/NDC1],2.86 ± 0.063,2.79 ± 0.066,2.84 ± 0.035,2.89 ± 0.047
ALNDVYLDADVAKLANW [YML031W/NDC1],2.85 ± 0.2,3.52 ± 0.22,3.67 ± 0.22,3.73 ± 0.24
GTKSNEKKDSGSSKPAF [YJL041W/NSP1],3.21 ± 0.063,3.45 ± 0.072,3.42 ± 0.046,3.25 ± 0.069
DQSISKLQSWDKVSSCF [NNF1],1.51 ± 0.072,1.59 ± 0.069,1.42 ± 0.1,1.82 ± 0.053
TPFSFGTANNNSNTTNQ [YJL041W/NSP1],3.25 ± 0.054,3.21 ± 0.045,3.13 ± 0.035,3.09 ± 0.041
